± gives the uncertainty stated by the source.
B1: Far upstream element-binding protein 1, residues 98 to 169; numbered along this chain, Q96AE4 (parent)
chain: RSVMTEEYKVPDGMVGFIIGRGGEQISRIQQESGCKIQIAPDSGGLPERSCMLTGTPESVQSAKRLLDQIVE

Variants of: B1
Test: abundance fitness (aPCA) (normalised: wild type 0, dead -1); higher = more abundant; growth selection in yeast, the domain comes from the species named
Conditions: Homo sapiens

Variant | abundance fitness
RSVMTEEYKVPDGMRGFIIGRGGEQISRIQQESGCKIQIAPDSGGLPERSCMLTGTPESVQSAKRLLDQIVE | -0.206 ± 0.024
RSVMTEEYKVPDGMWGFIIGRGGEQISRIQQESGCKIQIAPDSGGLPERSCMLTGTPESVQSAKRLLDQIVE | -0.084 ± 0.029
RSVMTEEYKVPDGMQGFIIGRGGEQISRIQQESGCKIQIAPDSGGLPERSCMLTGTPESVQSAKRLLDQIVE | -0.08 ± 0.035
RSVMTEEYKVPDGMYGFIIGRGGEQISRIQQESGCKIQIAPDSGGLPERSCMLTGTPESVQSAKRLLDQIVE | -0.144 ± 0.047
RSVMTEEYKVPDGMTGFIIGRGGEQISRIQQESGCKIQIAPDSGGLPERSCMLTGTPESVQSAKRLLDQIVE | -0.126 ± 0.032
RSVMTEEYKVPDGMSGFIIGRGGEQISRIQQESGCKIQIAPDSGGLPERSCMLTGTPESVQSAKRLLDQIVE | -0.059 ± 0.028
RSVMTEEYKVPDGMPGFIIGRGGEQISRIQQESGCKIQIAPDSGGLPERSCMLTGTPESVQSAKRLLDQIVE | -0.146 ± 0.032
RSVMTEEYKVPDGMNGFIIGRGGEQISRIQQESGCKIQIAPDSGGLPERSCMLTGTPESVQSAKRLLDQIVE | -0.213 ± 0.049
RSVMTEEYKVPDGMVWFIIGRGGEQISRIQQESGCKIQIAPDSGGLPERSCMLTGTPESVQSAKRLLDQIVE | -0.09 ± 0.03
RSVMTEEYKVPDGMVFFIIGRGGEQISRIQQESGCKIQIAPDSGGLPERSCMLTGTPESVQSAKRLLDQIVE | -0.176 ± 0.059
RSVMTEEYKVPDGMVVFIIGRGGEQISRIQQESGCKIQIAPDSGGLPERSCMLTGTPESVQSAKRLLDQIVE | -0.108 ± 0.027
RSVMTEEYKVPDGMVCFIIGRGGEQISRIQQESGCKIQIAPDSGGLPERSCMLTGTPESVQSAKRLLDQIVE | -0.083 ± 0.044
RSVMTEEYKVPDGMVRFIIGRGGEQISRIQQESGCKIQIAPDSGGLPERSCMLTGTPESVQSAKRLLDQIVE | -0.007 ± 0.023
RSVMTEEYKVPDGMVLFIIGRGGEQISRIQQESGCKIQIAPDSGGLPERSCMLTGTPESVQSAKRLLDQIVE | -0.102 ± 0.029
RSVMTEEYKVPDGMVHFIIGRGGEQISRIQQESGCKIQIAPDSGGLPERSCMLTGTPESVQSAKRLLDQIVE | -0.064 ± 0.048
RSVMTEEYKVPDGMVEFIIGRGGEQISRIQQESGCKIQIAPDSGGLPERSCMLTGTPESVQSAKRLLDQIVE | 0.009 ± 0.03
RSVMTEEYKVPDGMVTFIIGRGGEQISRIQQESGCKIQIAPDSGGLPERSCMLTGTPESVQSAKRLLDQIVE | -0.054 ± 0.033
RSVMTEEYKVPDGMVQFIIGRGGEQISRIQQESGCKIQIAPDSGGLPERSCMLTGTPESVQSAKRLLDQIVE | -0.029 ± 0.033
RSVMTEEYKVPDGMVMFIIGRGGEQISRIQQESGCKIQIAPDSGGLPERSCMLTGTPESVQSAKRLLDQIVE | -0.098 ± 0.036

Variant | abundance fitness
RSVMTEEYKVPDGMVYFIIGRGGEQISRIQQESGCKIQIAPDSGGLPERSCMLTGTPESVQSAKRLLDQIVE | -0.118 ± 0.058
RSVMTEEYKVPDGMVIFIIGRGGEQISRIQQESGCKIQIAPDSGGLPERSCMLTGTPESVQSAKRLLDQIVE | -0.144 ± 0.06
RSVMTEEYKVPDGMVDFIIGRGGEQISRIQQESGCKIQIAPDSGGLPERSCMLTGTPESVQSAKRLLDQIVE | 0.018 ± 0.039
RSVMTEEYKVPDGMVNFIIGRGGEQISRIQQESGCKIQIAPDSGGLPERSCMLTGTPESVQSAKRLLDQIVE | -0.037 ± 0.043
RSVMTEEYKVPDGMVKFIIGRGGEQISRIQQESGCKIQIAPDSGGLPERSCMLTGTPESVQSAKRLLDQIVE | -0.028 ± 0.038
RSVMTEEYKVPDGMVPFIIGRGGEQISRIQQESGCKIQIAPDSGGLPERSCMLTGTPESVQSAKRLLDQIVE | 0.033 ± 0.034
RSVMTEEYKVPDGMVAFIIGRGGEQISRIQQESGCKIQIAPDSGGLPERSCMLTGTPESVQSAKRLLDQIVE | -0.023 ± 0.029
RSVMTEEYKVPDGMVGAIIGRGGEQISRIQQESGCKIQIAPDSGGLPERSCMLTGTPESVQSAKRLLDQIVE | 0.045 ± 0.025
RSVMTEEYKVPDGMVGTIIGRGGEQISRIQQESGCKIQIAPDSGGLPERSCMLTGTPESVQSAKRLLDQIVE | 0 ± 0.027
RSVMTEEYKVPDGMVGVIIGRGGEQISRIQQESGCKIQIAPDSGGLPERSCMLTGTPESVQSAKRLLDQIVE | -0.005 ± 0.024
RSVMTEEYKVPDGMVGRIIGRGGEQISRIQQESGCKIQIAPDSGGLPERSCMLTGTPESVQSAKRLLDQIVE | 0.047 ± 0.021
RSVMTEEYKVPDGMVGMIIGRGGEQISRIQQESGCKIQIAPDSGGLPERSCMLTGTPESVQSAKRLLDQIVE | 0.018 ± 0.032
RSVMTEEYKVPDGMVGWIIGRGGEQISRIQQESGCKIQIAPDSGGLPERSCMLTGTPESVQSAKRLLDQIVE | -0.007 ± 0.026
RSVMTEEYKVPDGMVGEIIGRGGEQISRIQQESGCKIQIAPDSGGLPERSCMLTGTPESVQSAKRLLDQIVE | 0.084 ± 0.027
RSVMTEEYKVPDGMVGKIIGRGGEQISRIQQESGCKIQIAPDSGGLPERSCMLTGTPESVQSAKRLLDQIVE | 0.072 ± 0.03
RSVMTEEYKVPDGMVGGIIGRGGEQISRIQQESGCKIQIAPDSGGLPERSCMLTGTPESVQSAKRLLDQIVE | 0.04 ± 0.022
RSVMTEEYKVPDGMVGPIIGRGGEQISRIQQESGCKIQIAPDSGGLPERSCMLTGTPESVQSAKRLLDQIVE | 0.01 ± 0.028
RSVMTEEYKVPDGMVGQIIGRGGEQISRIQQESGCKIQIAPDSGGLPERSCMLTGTPESVQSAKRLLDQIVE | 0.044 ± 0.029
